Assay results from publication PMC4325844 (Molecular Biology of the Cell, 2015).

Molecular target: GST–PAR3-2N (UniProt Q9Z340 252-697)
Experiment: pull-down

Chain of GST–PAR3-2N (Q9Z340 252-697): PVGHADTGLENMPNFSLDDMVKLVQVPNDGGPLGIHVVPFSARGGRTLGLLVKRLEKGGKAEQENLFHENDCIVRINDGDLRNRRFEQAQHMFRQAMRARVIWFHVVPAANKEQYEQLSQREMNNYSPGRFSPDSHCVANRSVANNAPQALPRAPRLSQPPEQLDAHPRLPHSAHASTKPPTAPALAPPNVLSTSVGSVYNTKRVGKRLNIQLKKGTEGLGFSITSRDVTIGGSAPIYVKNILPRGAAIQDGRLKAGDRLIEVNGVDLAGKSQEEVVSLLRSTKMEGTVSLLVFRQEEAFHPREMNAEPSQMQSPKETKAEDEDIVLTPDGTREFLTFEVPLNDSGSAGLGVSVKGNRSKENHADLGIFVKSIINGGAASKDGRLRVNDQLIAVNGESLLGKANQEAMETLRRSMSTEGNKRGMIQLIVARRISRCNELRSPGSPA

Kd: ~6 nM
B1: MBP–CLASP2-N2 (domain or fragment, UniProt O75122 310-670, looked up)
chain: SSGSVASLPQSDRSSSSSQESLNRPFSSKWSTANPSTVAGRVSAGSSKASSLPGSLQRSRSDIDVNAAAGAKAHHAAGQSVRSGRLGAGALNAGSYASLEDTSDKLDGTASEDGRVRAKLSAPLAGMGNAKADSRGRSRTKMVSQSQPGSRSGSPGRVLTTTALSTVSSGVQRVLVNSASAQKRSKIPRSQGCSREASPSRLSVARSSRIPRPSVSQGCSREASRESSRDTSPVRSFQPLASRHHSRSTGALYAPEVYGASGPGYGISQSSRLSSSVSAMRVLNTGSDVEEAVADALKKPARRRYESYGMHSDDDANSDASSACSERSYSSRNGSIPTYMRQTEDVAEVLNRCASSNWSER
